The supplement of paper PMC9170038

How the values were obtained:
Conditions in all cases: FMN input: 0 or 200 uM; Eterna round: R93 (includes R88 designs)
MS2 coat protein [1] = experiment: apparent KD of MS2 coat protein, switch ON state; designed switch direction (-1 OFF switch, 1 ON switch): 1; higher = weaker reporter binding
Procedure, shortened: (§1)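 Titration buffer: 100 mM Tris-HCl pH 7.5, 80 mM KCl, 4 mM MgCl2, without or with constant ligand. Designed RNA switches transcribed on-chip from Illumina sequencing clusters received SNAP-549-labelled MS2 coat protein in twofold steps from 0.7 or 1.5 nM to 3 µM. Apparent KD is the median per design of fits to normalised cluster binding curves.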

MS2 coat protein [2] = experiment: apparent KD of MS2 coat protein, switch OFF state (with FMN for OFF switches, without FMN for ON switches); designed switch direction (-1 OFF switch, 1 ON switch): 1; higher = weaker reporter binding
Procedure, shortened: as §1

MS2 coat protein [3] = experiment: apparent KD of MS2 coat protein, switch ON state; designed switch direction (-1 OFF switch, 1 ON switch): -1; higher = weaker reporter binding
Procedure, shortened: as §1

MS2 coat protein [4] = experiment: apparent KD of MS2 coat protein, switch OFF state (with FMN for OFF switches, without FMN for ON switches); designed switch direction (-1 OFF switch, 1 ON switch): -1; higher = weaker reporter binding
Procedure, shortened: as §1

Sequence	apparent KD of MS2 coat protein (MS2 coat protein [1])	apparent KD of MS2 coat protein (MS2 coat protein [2])	apparent KD of MS2 coat protein (MS2 coat protein [3])	apparent KD of MS2 coat protein (MS2 coat protein [4])
AAAAAAAAAAGUCAGGAUAUGCAGGGCGGGACAUGAGGAUCACCCAUGUGGCGGAAAAAAAAAAAGCAGAAGGGACGAAUAAAAAA [William Edwards Deming]	0.0231 µM	0.0428 µM	–	–
AAAAAAAGAUCACAGGAUAUACGAAAAAAAACAUGAGGAUCACCCAUGUAAAAAAAAAAAAAAAAGUAGAAGGGUGAUCCAAAAAA	0.0285 µM	0.011 µM	–	–
AAAAAACAUGAGGAUCACCCAUGUAAAAAAAUCACAGGAUAUAAGGUCGCGAAAGCGACCUUAGAAGGGUGAUCAA	0.0588 µM	0.421 µM	–	–
AAAAAACAUGAGGAUCACCCAUGUAAAAAAAUGGGAGGAUAUACAAAAACAAAAAAAAAAGUAGAAGGCCUGAAAA [same state 9]	0.0413 µM	0.419 µM	–	–
AAAAAACAUGAGGAUCACCCAUGUCCUCGGACGUGAGGAUAUGUACAGACUUCGGUCUGUACAGAAGGCAUGUAAA [SS1 - 1051]	0.555 µM	0.379 µM	–	–
AAAAAACAUGAGGAUCACCCAUGUCGAAAGACGUGAGGAUAUGUACAGACUUCGGUCUGUACAGAAGGCAUGAAAA [SS1 - 1057]	0.0795 µM	0.176 µM	–	–
AAAAAACAUGAGGAUCACCCAUGUCUUUUGACAUGAGGAUAUGUACAGACUUCGGUCUGUACAGAAGGCAUAAAAA [SS1 - 1030]	0.109 µM	0.48 µM	–	–
AAAAAACAUGAGGAUCACCCAUGUGAGAACAUGGGAGGAUAUACGAGGACGAGAGUCAAGGUAGAAGGCCUAAGAA [Garnet 68]	0.268 µM	0.0228 µM	–	–
AAAAAACAUGAGGAUCACCCAUGUGCAAAAUUCGCAGGAUAUUCCUCAAUUAAAUGAGAGGAAGAAGGGUGACAAA [Nob's Hobby 29 - Jieux - Same State 1]	0.112 µM	0.5 µM	–	–
AAAAAAGAUCGCGAGGAUAUCCGAGUGGUAACAUGAGGAUCACCCAUGUGAAGAAAGGAACAUGAGGAGAAGGCGCGAUCAAAAA [viburnum 5]	0.0109 µM	0.0187 µM	–	–
AAAACACAUGAGGAUCACCCAUGUAAAAACAUGAGAGGAUAUGCUUGGAAAACAUGCUAUGCAGAAGGCUCAAGUG [SS1 - 9]	0.0182 µM	0.0301 µM	–	–
AAAACACAUGAGGAUCACCCAUGUAGAAAUAUGGGAGGAUAUACGAAAACGAAAGUCAAAGUAGAAGGCCUAAAAG [saturn 3]	0.0309 µM	0.079 µM	–	–
AAAACCUGCGUCGAGGAUAUGUAGCCCACUACAUGAGGAUCACCCAUGUGGAUCUUACUGGGUCGACAGAAGGUGAAAGUAAGGC [Ustionon]	0.0493 µM	0.0394 µM	–	–
AAAAGACAUGAGGAUCACCCAUGUAAAGACAUAGGAGGAUAUGUCUGGAAAAAAGACUGGACAGAAGGCCUUUGUC [SS1 - 62]	0.02 µM	0.0204 µM	–	–
AAAAGACAUGAGGAUCACCCAUGUAGGCCAAAGCAAGGAUAUAGGCCACAGGGACGCGGACUAGAAGGUGCACGGC [Orerorge]	0.0252 µM	0.0602 µM	–	–
AAAAGACAUGAGGAUCACCCAUGUAGGCCAAAGCAAGGAUAUAGGCCACAGGGACGUGAACUAGAAGGUGCACGGC [Zainlebe]	0.0308 µM	0.135 µM	–	–
AAAAGACAUGAGGAUCACCCAUGUCGAAAGACAUGAGGAUAUGUACAGACUUCGGUCUGUACAGAAGGCAUAAAAA [SS1 - 1061]	0.027 µM	0.0895 µM	–	–
AAAAGACAUGAGGAUCACCCAUGUGAAAACGUAGGAGGAUAUGUAUGGAAACCAGACUGUACAGAAGGCCUUUGUC [SS1 - 75]	0.023 µM	0.0233 µM	–	–
AAAAUACAUGAGGAUCACCCAUGUGAAAAUAUGGGAGGAUAUACGAAAAAUAAAUAAAACGUAGAAGGCCUAAAAA [SS! 1 MT 2]	0.0222 µM	0.165 µM	–	–
GCUGUGCUAGGAUAUACAUGAGGAUCACCCAUGUGAGAGAAAAAAGUGAGAAAGAAAAGUAGAAGGAGCGUAGG [salish99-ex3-100]	–	–	0.0291 µM	0.0592 µM

Sequence	apparent KD of MS2 coat protein (MS2 coat protein [1])	apparent KD of MS2 coat protein (MS2 coat protein [2])	apparent KD of MS2 coat protein (MS2 coat protein [3])	apparent KD of MS2 coat protein (MS2 coat protein [4])
GCUUGUGAAGGAUAUACAUGAGGAUCACCCAUGUGAGAGAAAAAAGUGAGAAAGAAAAGUAGAAGGUCGUGAGG [salish99-ex3-79]	–	–	0.0361 µM	0.037 µM
GGAAAACAUGAGGAUCACCCAUGUAAGGAUAUGCAAAGGAUAUAGAAGGAAAAAAAAAGCAGAAGGUACAAAGG [salish99-ex1-20]	–	–	0.0265 µM	0.0536 µM
GGAAAGUAAGGAUAUGCGAACAAACAAACAAACAAAAGGGAACAUGAGGAUCACCCAUGUAGAAGGUGCAAACA [Exclusion 2 Three redone]	–	–	0.046 µM	0.0326 µM
GGGAAACAUGAGGAUCACCCAUGUGAGGAUAUGCUAUGGAAAAUAAAAAUAAAACAUAGCAGAAGGCAUAAAAA [Denovo 11]	–	–	0.0306 µM	0.037 µM
GGUUGGCGAGGAUAUACAUGAGGAUCACCCAUGUGAGAGAAAAAAGUGAGAAAGAAACGUAGAAGGCGCUGACG [salish99-ex3-30]	–	–	0.0884 µM	0.824 µM
GGUUGGCGAGGAUAUACAUGAGGAUCACCCAUGUGAGAGAAGAAAGUGAGGAGGAGAAGUAGAAGGCGCUGACG [salish99-ex3-20]	–	–	0.0514 µM	0.0989 µM
GUAAACCUAGGAUAUACAUGAGGAUCACCCAUGUAAAAAUUAAUAAAAAGAAAAACAAGUAGAAGGAGGUAGAU [JR_Exc003_Sub1225]	–	–	0.0196 µM	0.0208 µM
GUGAAGGAAGGAUAUACAAAGGGACGUUAUAAGAGAAGAAGACAUGAGGAUCACCCAUGUAGAAGGUCCAGAUC [Beorteesri]	–	–	0.0259 µM	0.0435 µM
GUGUACAGAGGAUAUACAUAAGCAUGGAAACAUGCAACUUCACAUGAGGAUCACCCAUGUAGAAGGCUGUACAC [Ex2: 729]	–	–	0.0121 µM	0.0137 µM
GUGUACAGAGGAUAUACAUAAGCAUGGAAACAUGCAAGAUCACAUGAGGAUCACCCAUGUAGAAGGCUGUACAC [Ex2: 738]	–	–	0.342 µM	0.18 µM
GUGUACAGAGGAUAUAUAUGAGCUAGGAAACUAGCAAGAUCACAUGAGGAUCACCCAUGUAGAAGGCUGUACAC [Ex2: 735]	–	–	0.108 µM	0.796 µM
UAGAUACAUGAGGAUCACCCAUGUGAGGAUAUCGUUUGUACUAAUCUUUUAGUAUUUUCGAGAAGGCACAUAUA [Ex1Try2_Neo]	–	–	0.0485 µM	0.143 µM
UAUAGACAUGAGGAUCACCCAUGUGAGGAUAUCAGUAACUACAAAACAUCACAUACAAUGAGAAGGCACAGAAA [JR_Exc001_Sub014]	–	–	0.04 µM	0.0498 µM
UCCACACAUGAGGAUCACCCAUGUGAGGAUAUCUAGAAAACCUCAUGUAAAAAAAUCUAGAGAAGGCAUAUGAA [Design 91: Pseudoknot A]	–	–	0.0241 µM	0.0186 µM
UCCAGACAUGAGGAUCACCCAUGUCAGGAUAUCUAGAAAACCUCAUGUAAAAAAAACUAGAGAAGGGAUAUGAA [Design 96: Pseudoknot F]	–	–	0.0196 µM	0.0157 µM
UCCUGACAUGAGGAUCACCCAUGUCAGGAUAUGCAUCUUAGGAAAAAAAAACUAAGAUGCAGAAGGGACAUGGG [Design 1: Super Stable]	–	–	0.0269 µM	0.0363 µM
UGGGAGUCAGGAUAUACGAACAUGUCGCCAGAUGUCAAGGUACAUGAGGAUCACCCAUGUAGAAGGGAGGAGAA [salish99-Ex2-30(!)]	–	–	0.0971 µM	0.0566 µM
UUUACGUGAGGAUAUGCGAAUAGUACGUAAGUCUUACAGACGCAGAAGGCACAUGAGGAUCACCCAUGUGAACC [JR_Exc004_Sub310]	–	–	0.0227 µM	0.0559 µM
UUUUGACAUGAGGAUCACCCAUGUCAGGAUAUAGUAAGAAAAAAAAAAAAAAAAACUACUAGAAGGGAUAUGGA [Amethyst 51]	–	–	0.0245 µM	0.0254 µM
